Drawing on patent publication US11903969, this text covers CD19+ cell population (B cells) remaining 24 hours after gene targeting for 1 substance.

This test deals with CD19 on CD19+ cells (Nalm6-GL, Raji, donor B cells) (UniProt P15391). Kind of test: cell-based or functional assay.
Chain of UniProt P15391 (P15391 20-556 limits assumed): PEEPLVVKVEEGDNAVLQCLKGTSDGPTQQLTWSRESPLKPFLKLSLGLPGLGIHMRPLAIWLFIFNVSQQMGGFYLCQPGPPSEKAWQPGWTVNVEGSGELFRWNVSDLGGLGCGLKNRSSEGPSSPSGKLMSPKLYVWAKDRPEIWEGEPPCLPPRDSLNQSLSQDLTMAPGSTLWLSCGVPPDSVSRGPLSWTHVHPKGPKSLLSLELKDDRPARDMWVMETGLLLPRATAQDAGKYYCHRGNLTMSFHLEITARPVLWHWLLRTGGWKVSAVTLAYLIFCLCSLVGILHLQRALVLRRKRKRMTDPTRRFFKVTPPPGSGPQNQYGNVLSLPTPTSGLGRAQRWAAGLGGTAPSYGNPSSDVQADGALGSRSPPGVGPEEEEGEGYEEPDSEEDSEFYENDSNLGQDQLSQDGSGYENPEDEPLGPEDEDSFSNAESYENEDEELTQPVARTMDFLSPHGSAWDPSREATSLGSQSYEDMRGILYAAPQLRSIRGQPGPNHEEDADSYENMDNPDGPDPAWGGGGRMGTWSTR

As for “CD19.28.ζ-CAR (CD19-specific chimeric antigen receptor with FMC63 scFv, CD28 hinge, transmembrane and intracellular sequences and CD3ζ intracellular domain) (from UniProt P10747 114-220; P20963 52-164)”, the CD19+ cell population (B cells) remaining 24 hours after gene targeting is 2.53%.
